Measurements published in patent publication US20240010747A1, “ANTI-MRP4 (ENCODED BY ABCC4 GENE) ANTIBODIES AND USES THEREOF” (Kenjockety Biotechnology, Inc., priority 2020, published 2024).

T1: human ABCC4 (Homo sapiens, UniProt O15439)
T1 construct: expressed in transfected cells
T1 sequence (O15439 1-1325): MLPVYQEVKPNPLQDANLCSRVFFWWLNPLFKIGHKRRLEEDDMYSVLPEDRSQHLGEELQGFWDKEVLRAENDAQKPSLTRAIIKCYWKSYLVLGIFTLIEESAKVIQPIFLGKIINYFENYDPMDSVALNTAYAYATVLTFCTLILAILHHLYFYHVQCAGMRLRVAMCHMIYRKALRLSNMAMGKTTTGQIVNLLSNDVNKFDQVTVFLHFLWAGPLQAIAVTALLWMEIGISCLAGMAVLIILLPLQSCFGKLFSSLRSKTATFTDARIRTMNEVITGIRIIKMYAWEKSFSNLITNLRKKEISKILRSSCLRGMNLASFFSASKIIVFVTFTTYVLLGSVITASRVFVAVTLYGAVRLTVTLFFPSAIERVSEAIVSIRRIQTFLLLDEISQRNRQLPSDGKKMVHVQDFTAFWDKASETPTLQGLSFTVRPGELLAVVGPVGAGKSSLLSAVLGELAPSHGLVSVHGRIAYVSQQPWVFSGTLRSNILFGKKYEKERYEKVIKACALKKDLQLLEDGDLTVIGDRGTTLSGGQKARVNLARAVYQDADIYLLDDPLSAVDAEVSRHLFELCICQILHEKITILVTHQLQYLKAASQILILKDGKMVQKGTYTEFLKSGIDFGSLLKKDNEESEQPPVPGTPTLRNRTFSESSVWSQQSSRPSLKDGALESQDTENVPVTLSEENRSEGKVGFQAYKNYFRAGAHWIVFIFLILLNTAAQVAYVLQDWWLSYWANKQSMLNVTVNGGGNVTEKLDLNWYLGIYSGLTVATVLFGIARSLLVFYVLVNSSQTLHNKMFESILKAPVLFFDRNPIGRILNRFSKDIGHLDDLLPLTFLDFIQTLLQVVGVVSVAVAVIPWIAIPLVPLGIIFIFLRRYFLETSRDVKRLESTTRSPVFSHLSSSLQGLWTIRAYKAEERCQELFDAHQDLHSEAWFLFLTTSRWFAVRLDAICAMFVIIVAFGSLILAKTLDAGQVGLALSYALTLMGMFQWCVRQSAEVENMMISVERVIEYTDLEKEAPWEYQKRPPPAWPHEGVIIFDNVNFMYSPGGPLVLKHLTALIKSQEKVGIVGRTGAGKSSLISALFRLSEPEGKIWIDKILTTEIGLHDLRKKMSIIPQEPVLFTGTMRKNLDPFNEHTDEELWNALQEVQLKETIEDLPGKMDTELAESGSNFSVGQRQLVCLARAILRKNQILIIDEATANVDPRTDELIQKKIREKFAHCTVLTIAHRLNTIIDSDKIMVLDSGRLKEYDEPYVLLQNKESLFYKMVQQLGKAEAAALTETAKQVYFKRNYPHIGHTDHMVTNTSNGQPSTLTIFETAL


Key:
cynomolgus ABCC4 [1] = assay: Flow cytometry (FACS) binding to C6 cells stably transfected to express cynomolgus ABCC4 (different experiment, different C6.cC4 cell line, Table 4); set-up: key to Cynomolgus ABCC4 binding: Negative (−)=Rmax (MFI) below background level; Positive (+)=MFI>3× background level; conditions: for binding to cynomolgus ABCC4 expressed on cell surface: Table 4 study, stated in words; for Cynomolgus ABCC4 binding: different C6.cC4 cell line, C6 cells stably transfected to express cynomolgus ABCC4, FACS, Table 4
Protocol: (§1) Binding titration of recombinant antibodies to ABCC4 transfectants was performed by serial dilution of antibodies from about 666 nM. Diluted antibody in flow cytometry buffer was incubated with cells on ice for 30 min. After 2 washes with flow cytometry buffer, bound antibody was detected with PE-labeled F(ab′)2 fragment goat anti-human IgG (Jackson ImmunoResearch) diluted 1:200 in flow cytometry buffer and incubated with cells for 20 min on ice. After 2 washes with flow cytometry buffer fluorescence was measured on an Attune N×T flow cytometer. Data were analyzed with GraphPad Prism 8.0 software to determine EC50's.
(§2) Human embryonic kidney HEK 293T cells and murine C6 (ATCC CCL-107) were transfected with human or cynomolgus ABCC4 cDNA with C-terminal fused FLAG tag in a pMONO-hygro vector with Lipofectamine 3000 (Invitrogen #L3000001). The cells were treated with 0.2 mg/ml and 0.5 mg/ml hygromycin respectively for about 2 weeks while cultivated in DMEM and 10% FBS with 0.2 mg/ml hygromycin and 0.5 mg/ml hygromycin, respectively. The cells were washed with PBS, and stained with […] of anti-FLAG-PE after fixing and permeablization. Clones expressing ABCC4 were single-cell sorted into 200 μl DMEM with 10% FBS using a BD Aria FACS machine and cultivated in 96 well plates using standard techniques in an incubator at 37° C. and 5% CO 2. Two weeks later clones expressing high levels of ABCC4 were screened and amplified.
(§3) Antibody binding to cells was evaluated by flow cytometry. Murine C6 cells stably transfected to express human or cynomolgus ABCC4 were washed once in flow cytometry buffer (PBS+2% FBS+0.02% sodium azide), resuspended at 2×10^6 cells/mL in flow cytometry buffer, and dispensed into 96-well microtiter plates at 0.1 mL/well. Recombinant antibodies were added to cells at 5 ug/mL for initial binding confirmation, or serially diluted from 100 ug/mL in flow cytometry buffer. After incubating cells on ice for 30 min, cells were washed twice with flow cytometry buffer. Bound antibody was detected with PE-labeled F(ab′)2 fragment goat anti-human IgG (Jackson ImmunoResearch) and evaluated on an Attune N×T flow cytometer. EC50 is calculated to be the concentration of antibody that gives half maximal response.
(§4) In a different experiment, using a different C6.cC4 cell line, detecting the binding of anti-ABCC4 antibodies to C6 cells stably transfected to express human ABCC4 measured by FACS and to C6 cells stably transfected to express cynomolgus ABCC4 measured by FACS, the results set forth in Table 4 were obtained. Negative (−)=Rmax (MFI) below background level. Positive (+)=MFI>3× background level.

human ABCC4 [2] = biological target: T1, human ABCC4; assay: Flow cytometry (FACS) binding to C6 cells stably transfected to express human ABCC4 (Table 3 study); conditions: for Human ABCC4 binding: C6 cells stably transfected to express human ABCC4, FACS, Table 3; for binding to human ABCC4 expressed on cell surface: Table 3 study, stated in words
Protocol: as §1, §2, §3
(§5) Table 3 lists the following characteristics of the rat anti-ABCC4 antibodies tested: binding to C6 cells stably transfected to express human ABCC4 measured by FACS and binding to C6 cells stably transfected to express cynomolgus ABCC4 measured by FACS. Negative (−) is defined as maximum response (Rmax(MFI)) below background level. Positive (+) is defined as MFI>1000.

human ABCC4 [3] = biological target: T1, human ABCC4; assay: Flow cytometry (FACS) binding to C6 cells stably transfected to express human ABCC4 (different experiment, Table 4); conditions: for Human ABCC4 binding: C6 cells stably transfected to express human ABCC4, FACS, different experiment, Table 4; for binding to human ABCC4 expressed on cell surface: Table 4 study, stated in words
Protocol: as §1, §2, §3, §4

cynomolgus ABCC4 [4] = assay: Flow cytometry (FACS) binding to C6 cells stably transfected to express cynomolgus ABCC4 (Table 3 study); set-up: key to Cynomolgus ABCC4 binding: Negative (−) is defined as maximum response (Rmax(MFI)) below background level; Positive (+) is defined as MFI>1000; conditions: for Cynomolgus ABCC4 binding: C6 cells stably transfected to express cynomolgus ABCC4, FACS, Table 3; for binding to cynomolgus ABCC4 expressed on cell surface: Table 3 study, stated in words
Protocol: as §1, §2, §3, §5

| Molecule | binding to cynomolgus ABCC4 expressed on cell surface (cynomolgus ABCC4 [1]) | Cynomolgus ABCC4 binding (cynomolgus ABCC4 [1]) | Human ABCC4 binding (human ABCC4 [2]) | binding to human ABCC4 expressed on cell surface (human ABCC4 [2]) | Human ABCC4 binding (human ABCC4 [3]) | binding to human ABCC4 expressed on cell surface (human ABCC4 [3]) | Cynomolgus ABCC4 binding (cynomolgus ABCC4 [4]) | binding to cynomolgus ABCC4 expressed on cell surface (cynomolgus ABCC4 [4]) |
| --- | --- | --- | --- | --- | --- | --- | --- | --- |
| C4.976: anti-ABCC4 antibody raised in rats; VH SEQ ID NO: 12, VL SEQ ID NO: 132 (antibody, V domains shown) VH: EVKLLESGGGLVQPGRSLKVSCVASGFIFSDYYMAWVRQAPTKGLEWVAYINYDGGSTYYGDSVKGRFTISRDNAKSSLYLQMNSLRFEDMATYYCARRDYGSKFDYWGQGVMVTVSS VL: EIVIIQSPALAVSLGQRATISCKTNQNVDYYGNSYIHWYQQKPGQQPKLLIYLASNLASGIPARFSGRGSGTDFTLTIDPVEADDPATYYCQQSRNLPFTFGSGTKLELK | bind to both human and cynomolgus ABCC4 | + (Positive (+)=MFI>3× background level) | + (Positive (+) is defined as MFI>1000) | bind to both human and cynomolgus ABCC4 | + (Positive (+)=MFI>3× background level) | bind to both human and cynomolgus ABCC4 | + (Positive (+) is defined as MFI>1000) | bind to both human and cynomolgus ABCC4 |
| C4.953: anti-ABCC4 antibody raised in rats; VH SEQ ID NO: 6, VL SEQ ID NO: 129 (antibody, V domains shown) VH: QVTLKESGPGILQPSQTLSLTCTFSGFSLSTYGMGVGWIRQPSGKALEWLANIWWDDDKSYNPSLKNRLTISKGTSNNQAFLKITSVDTADSATYHCARIGSGNSEFDYWGQGVMVTVSS VL: DVVLTQSPSSLSASLGDRVTITCRASQDIGNYLTWFQQKPGKSPRRMIYGATNLAAGVPSRFSGSRSGSDYSLTISSLESEDVADYHCLQSIQYPFTFGSGTKLEIK | bind to both human and cynomolgus ABCC4 | + (Positive (+)=MFI>3× background level) | + (Positive (+) is defined as MFI>1000) |  | + (Positive (+)=MFI>3× background level) | bind to both human and cynomolgus ABCC4 | − |  |
| C4.961: anti-ABCC4 antibody raised in rats; VH SEQ ID NO: 9, VL SEQ ID NO: 130 (antibody, V domains shown) VH: EVQLKESGPGLVQPSQTLSLTCAVSGFSLTNYHVHWVRQPPGKGLEWMGVMWSDGDTSYNSALKSRLSISRDTSKSQFFLKMNSLQTEDTATYYCARGGVYFDYWGQGASVTVSS VL: DIVMTQSPSSLAVSAGETVTINCKSSQSLLYSGNQKNSLAWYQQKPGQSPKLLIYWASTRQSGVPDRFIGSGSGTDFTLTFSSVQAEDLAIYYCQHYFDTPYTFGAGTKLELK | bind to both human and cynomolgus ABCC4 | + (Positive (+)=MFI>3× background level) | + (Positive (+) is defined as MFI>1000) | bind to both human and cynomolgus ABCC4 | + (Positive (+)=MFI>3× background level) | bind to both human and cynomolgus ABCC4 | + (Positive (+) is defined as MFI>1000) | bind to both human and cynomolgus ABCC4 |
| C4.927: anti-ABCC4 antibody raised in rats; VH SEQ ID NO: 4, VL SEQ ID NO: 127 (antibody, V domains shown) VH: EVQLVESGPGLVQPSRTLSLTCTVSGFSLTSYGVSWVRQPPGKGLEWIAAIWSGGSTDYNSALKSRLSISRDTSKSQVLLKMNSLQTEDTAMYFCARGATEGIDYWGQGASVTVSS VL: AIQVTQSPTSLSASLGDRVTLTCRASQDINNKMAWYQQKPGEVPQLLIYYASTLQSGTPSRFSGSGSGTDFSFTISHLQSEDFATYYCLQGYSLYTFGAGTKLELK |  | − |  |  | + (Positive (+)=MFI>3× background level) |  |  |  |
| C4.886: anti-ABCC4 antibody raised in rats; VH SEQ ID NO: 2, VL SEQ ID NO: 125 (antibody, V domains shown) VH: EVKLLESGGDLLQPGRSLKLSCAASGFTFNDYNMAWVRQAPKKGLQWVATILYDGSRTYYRDSVKGRFTISRDNSKSTLYLQMDSLRSEDTATYYCTTEFGYGSSHWFACWGQGTLVTVSS VL: DVVLTQTPVSLPVSLGGQASISCRSSQSLVHSNGNTYLHWYLQKPGQSPQLLISRISNRFSGVPDRFSGSGSGTDFTLKISRVEPEDLGDYYCFQSTHFPHTFGAGTKLEIK | bind to both human and cynomolgus ABCC4 | + (Positive (+)=MFI>3× background level) | + (Positive (+) is defined as MFI>1000) |  | + (Positive (+)=MFI>3× background level) | bind to both human and cynomolgus ABCC4 | − |  |
